Each block holds one molecule with its values, some of them ahead of it.
Tests used:
[1] = biological target: CALR del52 (human calreticulin mutant L367fs*46), full length, no tag stated (human); experiment: flow cytometry on living Ba/F3 cells with human TPOR and CALR mutant after adding the Fc fusion to the medium; concentration not given
[2] = biological target: the molecule itself; experiment: native gel of CALR species with or without DTT (self-association)
[3] = biological target: T1, TpoR D1D2 (sD1D2) with immature glycans, produced with CALR del52 in Drosophila S2 (Schneider) cells (human, UniProt P40238 26-283, limits assumed, immature glycans (Asn117)); experiment: complex co-produced in S2 cells, size-exclusion chromatography, HDx-MS
T1 construct: Purified as a complex with CALR del52 for HDx-MS; also called immature TpoR
T1 sequence: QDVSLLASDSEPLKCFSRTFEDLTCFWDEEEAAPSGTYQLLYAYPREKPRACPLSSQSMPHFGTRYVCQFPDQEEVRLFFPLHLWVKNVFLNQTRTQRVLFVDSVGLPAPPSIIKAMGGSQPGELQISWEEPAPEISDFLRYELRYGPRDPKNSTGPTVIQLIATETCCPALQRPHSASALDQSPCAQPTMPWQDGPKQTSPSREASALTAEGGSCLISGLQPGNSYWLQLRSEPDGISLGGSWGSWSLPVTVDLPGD
Text: All peptides were visually validated based on retention time, drift time and isotopic m/z. Data was statistically analyzed using Deuteros 2.0 with peptide-level significance testing (Lau et al., 2021).
Subsequently, CALR del52-D1D2 produced as a complex in Schneider cells was purified. Briefly, the extracellular domain of the human TpoR and human CALR mutant del52 produced in Drosophila S2 cells (Thermo Fisher Scientific) were fractionated by using size-exclusion chromatography by loading on a Superdex 200 Increase 10/300 column (GE Healthcare). Elution was performed at 0.5 mL/min with buffer TNG (Tris-NaCl-glycerol) pH 7.5, and 0.5 mL fractions were collected and analyzed by sodium dodecyl sulfate-polyacrylamide gel electrophoresis and western blot. Fraction proteins were immunoprecipitated with anti-His5 antibody (Qiagen) and treated with Endoglycosidase-H (NEB) or N-glycosidase F (NEB). HDx-MS was used to detect all interaction sites between CALR del52 and TpoR D1D2 (sD1D2) produced in the same cells. […] Importantly, this region was not involved in binding of mature TpoR as shown above, confirming that it is specifically involved in interaction with immature glycans. […]

[4] = biological target: the molecule itself; experiment: native gel with or without DTT (self-association)
[5] = biological target: T2, recombinant complete extracellular domain of TpoR with mature glycans (human, UniProt P40238 26-490, mature glycans); experiment: HDx-MS of mature TpoR ECD alone or with CALR del52
T2 construct: Purified recombinant protein used in HDx-MS; also called TpoR ECD; D1D2D3D4
T2 sequence: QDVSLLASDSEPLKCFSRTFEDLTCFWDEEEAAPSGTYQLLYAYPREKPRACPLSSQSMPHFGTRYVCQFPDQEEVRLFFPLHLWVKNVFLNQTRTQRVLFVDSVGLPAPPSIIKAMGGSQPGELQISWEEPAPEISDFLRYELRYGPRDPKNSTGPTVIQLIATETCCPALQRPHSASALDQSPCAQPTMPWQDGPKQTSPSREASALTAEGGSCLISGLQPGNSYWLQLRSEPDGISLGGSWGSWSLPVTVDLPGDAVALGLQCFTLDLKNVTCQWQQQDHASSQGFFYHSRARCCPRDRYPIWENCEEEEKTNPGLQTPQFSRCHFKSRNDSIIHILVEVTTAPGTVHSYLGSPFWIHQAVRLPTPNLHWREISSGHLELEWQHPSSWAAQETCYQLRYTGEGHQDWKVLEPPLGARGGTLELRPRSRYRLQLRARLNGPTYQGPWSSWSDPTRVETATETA
Procedure: Hydrogen-Deuterium Exchange Mass Spectrometry (HDx-MS): Hydrogen-Deuterium Exchange Mass Spectrometry was performed with a Waters nanoAcquity UPLC with HDx technology coupled with Synapt G2-Si. All purified recombinant proteins were used at 20 μM concentration in equilibration buffer (5 mM K2HPO4, 5 mM KH2PO4 dissolved in H2O, pH 7). For interaction analysis between recombinant mature D1D2D3D4 and CALR del52, proteins were first mixed together at a 1:1 molarity for 30 minutes at room temperature followed by 3 hours at 4° C. Proteins were then kept at 0° C. Labelling was performed with a 20-fold dilution of samples in labelling buffer (5 mM K2HPO4, 5 mM KH2PO4 dissolved in D20, pD 7) for 6 different incubation times (0, 0.25, 1, 5, 20 and 60 minutes) at 20° C. After incubation, the reaction was quenched using a 1:1 dilution in the quench buffer (0.05 M K2HPO4, 0.05 M KH2PO4 with 30 mM TCEP, pH 2.3) prior to injection into a pepsin column (Enzymate BEH Pepsin 2.1×30 Column, Waters CAT. 186007233) with dynamic flowrate of 150-75 μL/min. […] The peptides identified were further analyzed with DynamX 3.0 (Waters) using a tolerance of 10 ppm, a maximum length of 35 a.a., a minimum products per amino acid of 0.2 and requiring that each peptide was identified in 3 out of 3 replicates. […] Data was statistically analyzed using Deuteros 2.0 with peptide-level significance testing (Lau et al., 2021). […]

- reduction of the level of CALR mutant at the cell surface [1]: > 50%
Molecule: D1-Fc (TPOR D1 domain fused through its C-terminus to an Fc fragment) (from UniProt P40238 26-121) (Fc fusion)

B1: CALR Δc-tail (other)
chain: EPAVYFKEQFLDGDGWTSRWIESKHKSDFGKFVLSSGKFYGDEEKDKGLQTSQDARFYALSASFEPFSNKGQTLVVQFTVKHEQNIDCGGGYVKLFPNSLDQTDMHGDSEYNIMFGPDICGPGTKKVHVIFNYKGKNVLINKDIRCKDDEFTHLYTLIVRPDNTYEVKIDNSQVESGSLEDDWDFLPPKKIKDPDASKPEDWDERAKIDDPTDSKPEDWDKPEHIPDPDAKKPEDWDEEMDGEWEPPVIQNPEYKGEWKPRQIDNPDYKGTWIHPEIDNPEYSPDPSIYAYDNFGVLGLDLWQVKSGTIFDNFLITNDEAYAEEFGNETWGVTKAAEKQMKDKQDEEQR
notes: the C-tail is absent
- binding result [2]: no binding

- binding result [3]: binds
- binding result [5]: binds
B2: CALR del52 (human calreticulin mutant L367fs*46), full length, no tag stated (other)
chain: EPAVYFKEQFLDGDGWTSRWIESKHKSDFGKFVLSSGKFYGDEEKDKGLQTSQDARFYALSASFEPFSNKGQTLVVQFTVKHEQNIDCGGGYVKLFPNSLDQTDMHGDSEYNIMFGPDICGPGTKKVHVIFNYKGKNVLINKDIRCKDDEFTHLYTLIVRPDNTYEVKIDNSQVESGSLEDDWDFLPPKKIKDPDASKPEDWDERAKIDDPTDSKPEDWDKPEHIPDPDAKKPEDWDEEMDGEWEPPVIQNPEYKGEWKPRQIDNPDYKGTWIHPEIDNPEYSPDPSIYAYDNFGVLGLDLWQVKSGTIFDNFLITNDEAYAEEFGNETWGVTKAAEKQMKDKQDEEQRTRRMMRTKMRMRRMRRTRRKMRRKMSPARPRTSCREACLQGWTEA
notes: also called CALR mutant; mutant CALR
- binding result [4]: binds

Reference: patent publication US20250250320A1 (UNIVERSITE CATHOLIQUE DE LOUVAIN, published 2025)
